This data set addresses T1, IB1 280-714 (Rattus, UniProt Q9R237 SEQ:280-714).
T1 sequence: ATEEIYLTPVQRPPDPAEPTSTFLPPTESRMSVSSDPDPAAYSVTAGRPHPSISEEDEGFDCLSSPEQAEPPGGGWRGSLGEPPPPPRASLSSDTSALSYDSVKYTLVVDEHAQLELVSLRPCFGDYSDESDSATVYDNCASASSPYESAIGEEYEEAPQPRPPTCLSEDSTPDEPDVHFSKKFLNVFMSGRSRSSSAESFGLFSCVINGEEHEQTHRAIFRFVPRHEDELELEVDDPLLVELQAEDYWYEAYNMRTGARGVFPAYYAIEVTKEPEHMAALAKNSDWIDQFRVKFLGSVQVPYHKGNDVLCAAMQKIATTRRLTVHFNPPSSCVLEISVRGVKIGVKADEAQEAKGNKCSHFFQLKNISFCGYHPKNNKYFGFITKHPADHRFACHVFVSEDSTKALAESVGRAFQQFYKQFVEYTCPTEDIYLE
As to the kind of experiment: SouthWestern. The settings on record: tags: bacterially produced; label: 32P.

B1: GTII (dsDNA)
DNA 1: GTAAAGGGTGTATTGATTGGATTACCATCAATACTCAGCTTCT
DNA 2: AGAAGCTGAGTATTGATGGTAATCCAATCAATACACCCTTTAC
On to B1, for which the binding result is given as “binds”.

Source of the values: patent publication US6620914, “Transcription factor islet-brain 1 (IB1)” (Gerard).
